CN115594762A (KUNSHAN XINYUNDA BIOTECHNOLOGY CO LTD, dated 2023)

Biological target: 人重链铁蛋白(HFn) (人铁蛋白H亚基, wild type, recombinant from E. coli) (human)
Experiment: ELISA, antigen coated at 1 μg/ml, purified antibody titrated, HRP goat anti-mouse IgG, OD450

Chain of 人重链铁蛋白(HFn) (人铁蛋白H亚基, wild type, recombinant from E. coli) (human) (chain, as listed by the source): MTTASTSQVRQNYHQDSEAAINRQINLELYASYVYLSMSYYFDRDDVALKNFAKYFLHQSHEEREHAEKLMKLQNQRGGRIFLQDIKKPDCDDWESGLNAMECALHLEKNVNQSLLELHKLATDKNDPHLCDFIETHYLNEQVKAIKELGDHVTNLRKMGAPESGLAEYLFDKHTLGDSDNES

- EC50: 3.68 ng/mL
B1: 单克隆抗体3A (抗人重链铁蛋白的抗体3A, secreted by hybridoma 3A7 1B6, CGMCC NO:21906) (antibody, IgG2b, V domains shown)
VH: EVQLQQPGAELVKPGTSVKLSCKASGYIFTSYWMHWVKQRPGQGLEWIGEINPSNARTNYNEKFKSKATLTVDKSSSTTYMQLSSLTSEDSAVYYCARSSYGKNAMDYWGQGTSVTVSS
VL: DIQMTQTPSSLSASLGDRVTISCRTSQDISNYLNWYQQKPDGTVKLLIYYTSRLHSGVPSRFSGSGSGTAYSLTISNLEQEDIATYLCQEGNTLPRTFGGGTKLEIKR
notes: also called 3A单抗; 3A抗体
